Assay [1] concerns the target VEGFR-3 on mouse oligodendrocyte precursor cells (OPCs) (mouse) (UniProt P35917). Nature of the assay: cell-based or functional assay.
Assay [2] has as its target neuropilin-2 on mouse oligodendrocyte precursor cells (OPCs) (mouse) (UniProt O35375). Nature of the assay: cell-based or functional assay.
UniProt O35375, sequence (O35375 21-931): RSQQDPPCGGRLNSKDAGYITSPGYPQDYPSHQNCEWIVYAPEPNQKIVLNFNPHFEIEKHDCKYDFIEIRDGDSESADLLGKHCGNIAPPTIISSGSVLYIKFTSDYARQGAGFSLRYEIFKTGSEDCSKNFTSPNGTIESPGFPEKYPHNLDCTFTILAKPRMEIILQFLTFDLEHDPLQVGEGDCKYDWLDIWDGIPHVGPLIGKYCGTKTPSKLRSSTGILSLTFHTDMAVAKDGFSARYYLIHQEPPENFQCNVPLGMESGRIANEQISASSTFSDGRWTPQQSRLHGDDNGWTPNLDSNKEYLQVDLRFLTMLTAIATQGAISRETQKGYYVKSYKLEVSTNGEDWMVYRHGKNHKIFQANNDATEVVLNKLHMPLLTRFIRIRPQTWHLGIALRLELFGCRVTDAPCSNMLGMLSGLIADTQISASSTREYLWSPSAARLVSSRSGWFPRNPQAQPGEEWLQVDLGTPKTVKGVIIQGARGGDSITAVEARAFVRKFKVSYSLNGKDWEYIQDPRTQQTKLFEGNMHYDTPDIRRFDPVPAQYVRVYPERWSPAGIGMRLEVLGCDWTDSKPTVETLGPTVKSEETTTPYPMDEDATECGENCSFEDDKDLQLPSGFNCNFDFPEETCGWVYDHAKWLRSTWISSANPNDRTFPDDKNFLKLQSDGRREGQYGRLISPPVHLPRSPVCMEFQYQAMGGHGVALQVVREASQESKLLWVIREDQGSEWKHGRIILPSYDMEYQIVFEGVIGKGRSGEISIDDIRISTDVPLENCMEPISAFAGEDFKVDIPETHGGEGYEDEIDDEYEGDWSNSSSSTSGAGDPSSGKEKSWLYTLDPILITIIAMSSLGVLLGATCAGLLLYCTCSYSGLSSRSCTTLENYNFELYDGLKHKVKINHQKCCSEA

UniProt P35917, sequence (P35917 25-1363): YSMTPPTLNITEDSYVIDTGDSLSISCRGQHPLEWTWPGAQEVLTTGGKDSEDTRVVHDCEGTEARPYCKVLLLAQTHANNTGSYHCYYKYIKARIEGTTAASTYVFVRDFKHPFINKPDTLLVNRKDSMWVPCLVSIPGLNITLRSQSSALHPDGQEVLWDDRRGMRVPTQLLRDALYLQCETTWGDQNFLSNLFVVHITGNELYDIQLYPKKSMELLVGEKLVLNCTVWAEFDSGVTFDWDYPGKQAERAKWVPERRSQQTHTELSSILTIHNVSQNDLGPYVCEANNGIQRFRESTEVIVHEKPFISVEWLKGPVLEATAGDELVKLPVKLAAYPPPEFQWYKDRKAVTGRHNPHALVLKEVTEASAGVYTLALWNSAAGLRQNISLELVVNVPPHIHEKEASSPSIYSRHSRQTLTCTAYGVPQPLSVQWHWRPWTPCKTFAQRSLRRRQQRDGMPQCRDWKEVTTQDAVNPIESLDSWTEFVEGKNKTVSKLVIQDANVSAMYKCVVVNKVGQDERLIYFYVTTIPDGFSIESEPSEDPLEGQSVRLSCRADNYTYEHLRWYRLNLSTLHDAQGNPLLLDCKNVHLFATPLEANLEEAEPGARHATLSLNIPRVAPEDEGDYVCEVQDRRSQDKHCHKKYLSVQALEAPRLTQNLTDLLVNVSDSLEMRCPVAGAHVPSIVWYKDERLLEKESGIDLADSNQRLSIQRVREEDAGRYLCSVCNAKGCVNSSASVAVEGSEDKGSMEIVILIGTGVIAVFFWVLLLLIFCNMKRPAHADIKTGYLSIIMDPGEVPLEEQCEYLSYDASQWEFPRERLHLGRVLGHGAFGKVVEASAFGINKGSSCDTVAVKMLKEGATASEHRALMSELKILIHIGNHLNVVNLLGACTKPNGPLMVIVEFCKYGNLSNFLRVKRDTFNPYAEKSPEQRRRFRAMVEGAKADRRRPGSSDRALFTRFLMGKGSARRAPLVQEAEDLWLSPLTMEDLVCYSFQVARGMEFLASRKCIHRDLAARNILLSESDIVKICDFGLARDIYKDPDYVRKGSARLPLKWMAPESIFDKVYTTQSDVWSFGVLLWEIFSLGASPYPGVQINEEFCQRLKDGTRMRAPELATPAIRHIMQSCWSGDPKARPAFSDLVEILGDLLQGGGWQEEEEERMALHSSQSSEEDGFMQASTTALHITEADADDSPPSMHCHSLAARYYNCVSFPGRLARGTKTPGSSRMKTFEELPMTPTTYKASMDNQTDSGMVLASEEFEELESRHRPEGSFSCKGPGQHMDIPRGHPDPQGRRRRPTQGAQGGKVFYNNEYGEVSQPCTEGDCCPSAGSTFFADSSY

Consider “recombinant rat VEGF-C (Reliatech) (from UniProt O35757 99-223) (ligand)”, for which, in assay [1], the migration of Olig2^+ OPCs through the filter (transwell) is more than 2 fold and the proliferation of OPCs (BrdU^+/A2B5^+ cells) was determined as 2 fold.

In turn, “VEGF-C (supernatant of COS cells secreting VEGF-C) (ligand)” yielded a BrdU incorporation of A2B5^+ OPCs in assay [2] of 2 fold.

In assay [1], “human VEGF-C156S (R&D Systems) (from UniProt P49767 103-227) (ligand)” came in with a proliferation of OPCs (BrdU^+/A2B5^+ cells) of 50%.

These data come from US20080057028A1.
